Starred links: 1 amine or outer side, 2 acyl side, 3 side chain; linkers in the order of their positions; H or OH if unused. Non-standard residues stand in square brackets, D forms with d. Groups on a side chain read outwards from the residue. No end group written: not given here. *: point of attachment. C18 diacid = O=C(O)CCCCCCCCCCCCCCCCC(=O)*; γGlu = O=C(O)[C@H](CCC(=O)[*:2])N[*:1]; Ac4c = NC1(C(=O)O)CCC1; AEEA = NCCOCCOCC(=O)O; Aib = CC(C)(N)C(=O)O
What was measured:
[1] = target: T1, human glucagon receptor (human, UniProt P47871 26-477); assay: displacement of [125I]-glucagon from BHK membranes with human glucagon receptor, SPA, no serum albumin
T1 construct: whole, on cells; reporter assay used whole cells; also called hGCGR
T1 sequence (P47871 26-477): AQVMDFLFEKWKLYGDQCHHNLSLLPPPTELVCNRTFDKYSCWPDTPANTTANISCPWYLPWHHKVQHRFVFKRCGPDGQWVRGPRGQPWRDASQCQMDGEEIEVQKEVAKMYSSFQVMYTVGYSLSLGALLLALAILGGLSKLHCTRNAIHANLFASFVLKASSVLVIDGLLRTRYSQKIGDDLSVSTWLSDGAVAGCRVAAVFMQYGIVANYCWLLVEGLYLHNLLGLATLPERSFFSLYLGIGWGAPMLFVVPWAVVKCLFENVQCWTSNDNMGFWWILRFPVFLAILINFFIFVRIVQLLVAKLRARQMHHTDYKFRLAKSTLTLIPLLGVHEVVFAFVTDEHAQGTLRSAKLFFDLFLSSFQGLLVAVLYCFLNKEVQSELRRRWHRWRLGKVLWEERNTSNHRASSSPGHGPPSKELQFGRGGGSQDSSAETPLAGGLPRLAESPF

[2] = target: T2, human GLP-1 receptor (human, UniProt P43220 24-463); assay: displacement of [125I]-GLP-1-(7-36)NH2 from BHK membranes with human GLP-1R, SPA, no serum albumin
T2 construct: whole, on cells; reporter assay used whole cells

[3] = target: T2, human GLP-1 receptor; assay: cell-based or functional assay
[4] = target: T1, human glucagon receptor; assay: cell-based or functional assay

Row | IC50 [1] [nM] | IC50 [2] [nM] | GLP-1R EC50 (pM) [Assay (I)(a)], CRE luciferase reporter, BHK cells [3] [pM] | GlucagonR EC50 (pM), [Assay (I)(b)], CRE luciferase reporter, BHK cells [4] [pM] | Binder
1 | 2.7 | 0.3 | 2 | 12 | H[Ac4c]QGTFTSDLSKYLESRRAQEFVQWLIK([γGlu-AEEA-AEEA-γGlu-γGlu-C18 diacid])T-NH2 (N-terminus assumed; SMILES CC[C@H](C)[C@H](NC(=O)[C@H](CC(C)C)NC(=O)[C@H](Cc1c[nH]c2ccccc12)NC(=O)[C@H](CCC(N)=O)NC(=O)[C@@H](NC(=O)[C@H](Cc1ccccc1)NC(=O)[C@H](CCC(=O)O)NC(=O)[C@H](CCC(N)=O)NC(=O)[C@H](C)NC(=O)[C@H](CCCNC(=N)N)NC(=O)[C@H](CCCNC(=N)N)NC(=O)[C@H](CO)NC(=O)[C@H](CCC(=O)O)NC(=O)[C@H](CC(C)C)NC(=O)[C@H](Cc1ccc(O)cc1)NC(=O)[C@H](CCCCN)NC(=O)[C@H](CO)NC(=O)[C@H](CC(C)C)NC(=O)[C@H](CC(=O)O)NC(=O)[C@H](CO)NC(=O)[C@@H](NC(=O)[C@H](Cc1ccccc1)NC(=O)[C@@H](NC(=O)CNC(=O)[C@H](CCC(N)=O)NC(=O)C1(NC(=O)[C@@H](N)Cc2c[nH]cn2)CCC1)[C@@H](C)O)[C@@H](C)O)C(C)C)C(=O)N[C@@H](CCCCNC(=O)CC[C@H](NC(=O)COCCOCCNC(=O)COCCOCCNC(=O)CC[C@H](NC(=O)CC[C@H](NC(=O)CCCCCCCCCCCCCCCCC(=O)O)C(=O)O)C(=O)O)C(=O)O)C(=O)N[C@H](C(N)=O)[C@@H](C)O, also called Chem. 38; Chem 38)
2 | 4.6 | 0.1 | 1 | 24 | H[Aib]QGTFTSDVSKYLDARRAQDFVQWLIK([γGlu-AEEA-AEEA-γGlu-γGlu-C18 diacid])T-NH2 (N-terminus assumed; SMILES CC[C@H](C)[C@H](NC(=O)[C@H](CC(C)C)NC(=O)[C@H](Cc1c[nH]c2ccccc12)NC(=O)[C@H](CCC(N)=O)NC(=O)[C@@H](NC(=O)[C@H](Cc1ccccc1)NC(=O)[C@H](CC(=O)O)NC(=O)[C@H](CCC(N)=O)NC(=O)[C@H](C)NC(=O)[C@H](CCCNC(=N)N)NC(=O)[C@H](CCCNC(=N)N)NC(=O)[C@H](C)NC(=O)[C@H](CC(=O)O)NC(=O)[C@H](CC(C)C)NC(=O)[C@H](Cc1ccc(O)cc1)NC(=O)[C@H](CCCCN)NC(=O)[C@H](CO)NC(=O)[C@@H](NC(=O)[C@H](CC(=O)O)NC(=O)[C@H](CO)NC(=O)[C@@H](NC(=O)[C@H](Cc1ccccc1)NC(=O)[C@@H](NC(=O)CNC(=O)[C@H](CCC(N)=O)NC(=O)C(C)(C)NC(=O)[C@@H](N)Cc1c[nH]cn1)[C@@H](C)O)[C@@H](C)O)C(C)C)C(C)C)C(=O)N[C@@H](CCCCNC(=O)CC[C@H](NC(=O)COCCOCCNC(=O)COCCOCCNC(=O)CC[C@H](NC(=O)CC[C@H](NC(=O)CCCCCCCCCCCCCCCCC(=O)O)C(=O)O)C(=O)O)C(=O)O)C(=O)N[C@H](C(N)=O)[C@@H](C)O, also called Chem. 39; Chem 39)

— patent publication US20170101454A1 (Novo Nordisk, published 2017)
